{
  "source": "paper PMC12184499",
  "about": "“Pathogenic variants in the polycystin pore helix cause distinct forms of channel dysfunction” (Proceedings of the National Academy of Sciences of the …, 2025)",
  "key": {"[1]": {"target": "the molecule itself", "test": "SEC; Superdex 200 10/300 GL; PKD2 52-793 extracted with DDM and reconstituted in amphipol A8-35; Buffer B (25 mM pH 7.4, 150 mM NaCl, 1 mM TCEP, 1 mM CaCl2); oligomer and protomer peaks"}, "[2]": {"target": "the molecule itself", "test": "cryo-EM structure; single-particle cryo-EM of variant channels in amphipol A8-35 (0.5 to 1.0 mg/mL), refined with C4 symmetry"}},
  "data": [
    {"protein": "PKD2 WT channel (hPKD2: 52-793) (domain or fragment, human, UniProt Q13563 52-793, looked up, PKD2 (polycystin-2), human, residues 52-793 (hPKD2: 52-793); Construct is Strep-MBP-TEV-PKD2; the Strep tag lies before MBP and the TEV site, so it probably left with MBP on TEV cleavage; The cryo-EM methods give 53-792 for the variants; also called polycystin; source: Expi293F GnTI-/- cells, transient transfection, purified (Strep-Tactin, amphipol A8-35, SEC); not shown: MBP, N-terminal, cleaved) LEIEMQRIRQAAARDPPAGAAASPSPPLSSCSRQAWSRDNPGFEAEEEEEEVEGEEGGMVVEMDVEWRPGSRRSAASSAVSSVGARSRGLGGYHGAGHPSGRRRRREDQGPPCPSPVGGGDPLHRHLPLEGQPPRVAWAERLVRGLRGLWGTRLMEESSTNREKYLKSVLRELVTYLLFLIVLCILTYGMMSSNVYYYTRMMSQLFLDTPVSKTEKTNFKTLSSMEDFWKFTEGSLLDGLYWKMQPSNQTEADNRSFIFYENLLLGVPRIRQLRVRNGSCSIPQDLRDEIKECYDVYSVSSEDRAPFGPRNGTAWIYTSEKDLNGSSHWGIIATYSGAGYYLDLSRTREETAAQVASLKKNVWLDRGTRATFIDFSVYNANINLFCVVRLLVEFPATGGVIPSWQFQPLKLIRYVTTFDFFLAACEIIFCFFIFYYVVEEILEIRIHKLHYFRSFWNCLDVVIVVLSVVAIGINIYRTSNVEVLLQFLEDQNTFPNFEHLAYWQIQFNNIAAVTVFFVWIKLFKFINFNRTMSQLSTTMSRCAKDLFGFAIMFFIIFLAYAQLAYLVFGTQVDDFSTFQECIFTQFRIILGDINFAEIEEANRVLGPIYFTTFVFFMFFILLNMFLAIINDTYSEVKSDLAQQKAEMELSDLIRKGYHKALVKLKLKKNTVDDISESLRQGGGKLNFDELRQDLKGKGHTDAEIEAIFTKYDQDGDQELTEHEHQQMRDDLEKEREDLDLDH", "values": [
      {"measurement": "binding result", "setting": "[1]", "result": "binds"}
    ]},
    {"protein": "PKD2 R638C variant channel (hPKD2: 52-793) (domain or fragment, human, UniProt Q13563 52-793, looked up, PKD2 (polycystin-2), human, residues 52-793, ADPKD germline missense variant R638C in pore helix 1; Construct is Strep-MBP-TEV-PKD2; the Strep tag probably left with MBP on TEV cleavage; The cryo-EM methods give 53-792; the model holds E214-Q694 without M295-A303; source: Expi293F GnTI-/- cells, transient transfection, purified (Strep-Tactin, amphipol A8-35, SEC); not shown: MBP, N-terminal, …) LEIEMQRIRQAAARDPPAGAAASPSPPLSSCSRQAWSRDNPGFEAEEEEEEVEGEEGGMVVEMDVEWRPGSRRSAASSAVSSVGARSRGLGGYHGAGHPSGRRRRREDQGPPCPSPVGGGDPLHRHLPLEGQPPRVAWAERLVRGLRGLWGTRLMEESSTNREKYLKSVLRELVTYLLFLIVLCILTYGMMSSNVYYYTRMMSQLFLDTPVSKTEKTNFKTLSSMEDFWKFTEGSLLDGLYWKMQPSNQTEADNRSFIFYENLLLGVPRIRQLRVRNGSCSIPQDLRDEIKECYDVYSVSSEDRAPFGPRNGTAWIYTSEKDLNGSSHWGIIATYSGAGYYLDLSRTREETAAQVASLKKNVWLDRGTRATFIDFSVYNANINLFCVVRLLVEFPATGGVIPSWQFQPLKLIRYVTTFDFFLAACEIIFCFFIFYYVVEEILEIRIHKLHYFRSFWNCLDVVIVVLSVVAIGINIYRTSNVEVLLQFLEDQNTFPNFEHLAYWQIQFNNIAAVTVFFVWIKLFKFINFNRTMSQLSTTMSRCAKDLFGFAIMFFIIFLAYAQLAYLVFGTQVDDFSTFQECIFTQFCIILGDINFAEIEEANRVLGPIYFTTFVFFMFFILLNMFLAIINDTYSEVKSDLAQQKAEMELSDLIRKGYHKALVKLKLKKNTVDDISESLRQGGGKLNFDELRQDLKGKGHTDAEIEAIFTKYDQDGDQELTEHEHQQMRDDLEKEREDLDLDH", "values": [
      {"measurement": "stoichiometry N", "setting": "[2]", "result": 4}
    ]},
    {"protein": "PKD2 F629S variant channel (hPKD2: 52-793) (domain or fragment, human, UniProt Q13563 52-793, looked up, PKD2 (polycystin-2), human, residues 52-793, ADPKD germline missense variant F629S in pore helix 1; Construct is Strep-MBP-TEV-PKD2; the Strep tag probably left with MBP on TEV cleavage; The cryo-EM methods give 53-792; the model holds E214-Q694 without M295-A303; source: Expi293F GnTI-/- cells, transient transfection, purified (Strep-Tactin, amphipol A8-35, SEC); not shown: MBP, N-terminal, …) LEIEMQRIRQAAARDPPAGAAASPSPPLSSCSRQAWSRDNPGFEAEEEEEEVEGEEGGMVVEMDVEWRPGSRRSAASSAVSSVGARSRGLGGYHGAGHPSGRRRRREDQGPPCPSPVGGGDPLHRHLPLEGQPPRVAWAERLVRGLRGLWGTRLMEESSTNREKYLKSVLRELVTYLLFLIVLCILTYGMMSSNVYYYTRMMSQLFLDTPVSKTEKTNFKTLSSMEDFWKFTEGSLLDGLYWKMQPSNQTEADNRSFIFYENLLLGVPRIRQLRVRNGSCSIPQDLRDEIKECYDVYSVSSEDRAPFGPRNGTAWIYTSEKDLNGSSHWGIIATYSGAGYYLDLSRTREETAAQVASLKKNVWLDRGTRATFIDFSVYNANINLFCVVRLLVEFPATGGVIPSWQFQPLKLIRYVTTFDFFLAACEIIFCFFIFYYVVEEILEIRIHKLHYFRSFWNCLDVVIVVLSVVAIGINIYRTSNVEVLLQFLEDQNTFPNFEHLAYWQIQFNNIAAVTVFFVWIKLFKFINFNRTMSQLSTTMSRCAKDLFGFAIMFFIIFLAYAQLAYLVFGTQVDDFSTSQECIFTQFRIILGDINFAEIEEANRVLGPIYFTTFVFFMFFILLNMFLAIINDTYSEVKSDLAQQKAEMELSDLIRKGYHKALVKLKLKKNTVDDISESLRQGGGKLNFDELRQDLKGKGHTDAEIEAIFTKYDQDGDQELTEHEHQQMRDDLEKEREDLDLDH", "values": [
      {"measurement": "stoichiometry N", "setting": "[2]", "result": 4}
    ]}
  ]
}
